The record followed here is PMC8445900.

The test addresses SARS-CoV-2 spike protein receptor-binding domain, wildtype (SARS-CoV-2) (UniProt P0DTC2). Description: ITC. In general terms: Isothermal titration calorimetry measures the heat released or taken up as one component is titrated into another.

The term Kd denotes a measure of binding affinity in units of concentration. A higher Kd goes with a looser complex. Substance “CC12.1 single-chain fragment variable (scFv)” came in with a Kd of 0.028 µM and a dH of -4.8 kcal/mol.
